Source: patent publication US20090099029A1, “Methods and substrates for conducting assays” (Invitrogen Corporation, priority 2005, published 2009)

B1: MAP3K11(MLK3) (protein)
chain: MEPLKSLFLKSPLGSWNGSGSGGGGGGGGGRPEGSPKAAGYANPVWTALFDYEPSGQDELALRKGDRVEVLSRDAAISGDEGWWAGQVGGQVGIFPSNYVSRGGGPPPCEVASFQELRLEEVIGIGGFGKVYRGSWRGELVAVKAARQDPDEDISVTAESVRQEARLFAMLAHPNIIALKAVCLEEPNLCLVMEYAAGGPLSRALAGRRVPPHVLVNWAVQIARGMHYLHCEALVPVIHRDLKSNNILLLQPIESDDMEHKTLKITDFGLAREWHKTTQMSAAGTYAWMAPEVIKASTFSKGSDVWSFGVLLWELLTGEVPYRGIDCLAVAYGVAVNKLTLPIPSTCPEPFAQLMADCWAQDPHRRPDFASILQQLEALEAQVLREMPRDSFHSMQEGWKREIQGLFDELRAKEKELLSREEELTRAAREQRSQAEQLRRREHLLAQWELEVFERELTLLLQQVDRERPHVRRRRGTFKRSKLRARDGGERISMPLDFKHRITVQASPGLDRRRNVFEVGPGDSPTFPRFRAIQLEPAEPGQAWGRQSPRRLEDSSNGERRACWAWGPSSPKPGEAQNGRRRSRMDEATWYLDSDDSSPLGSPSTPPALNGNPPRPSLEPEEPKRPVPAERGSSSGTPKLIQRALLRGTALLASLGLGRDLQPPGGPGRERGESPTTPPTPTPAPCPTEPPPSPLICFSLKTPDSPPTPAPLLLDLGIPVGQRSAKSPRREEEPRGGTVSPPPGTSRSAPGTPGTPRSPPLGLISRPRPSPLRSRIDPWSFVSAGPRPSPLPSPQPAPRRAPWTLFPDSDPFWDSPPANPFQGGPQDCRAQTKDMGAQAPWVPEAGP
modifications: left off: a dimerising Fc or GST
B2: MAP3K2(MEKK2) (protein)
chain: MDDQQALNSIMQDLAVLHKASRPALSLQETRKAKSSSPKKQNDVRVKFEHRGEKRILQFPRPVKLEDLRSKAKIAFGQSMDLHYTNNELVIPLTTQDDLDKAVELLDRSIHMKSLKILLVINGSTQATNLEPLPSLEDLDNTVFGAERKKRLSIIGPTSRDRSSPPPGYIPDELHQVARNGSFTSINSEGEFIPESMDQMLDPLSLSSPENSGSGSCPSLDSPLDGESYPKSRMPRAQSYPDNHQEFSDYDNPIFEKFGKGGTYPRRYHVSYHHQEYNDGRKTFPRARRTQGTSLRSPVSFSPTDHSLSTSSGSSIFTPEYDDSRIRRRGSDIDNPTLTVMDISPPSRSPRAPTNWRLGKLLGQGAFGRVYLCYDVDTGRELAVKQVQFDPDSPETSKEVNALECEIQLLKNLLHERIVQYYGCLRDPQEKTLSIFMEYMPGGSIKDQLKAYGALTENVTRKYTRQILEGVHYLHSNMIVHRDIKGANILRDSTGNVKLGDFGASKRLQTICLSGTGMKSVTGTPYWMSPEVISGEGYGRKADIWSVACTVVEMLTEKPPWAEFEAMAAIFKIATQPTNPKLPPHVSDYTRDFLKRIFVEAKLRPSADELLRHMFVHYH
modifications: left off: a dimerising Fc or GST
B3: EPHA4 (protein)
chain: SRRRSKYSKAKQEADEEKHLNQGVRTYVDPFTYEDPNQAVREFAKEIDASCIKIEKVIGVGEFGEVCSGRLKVPGKREICVAIKTLKAGYTDKQRRDFLSEASIMGQFDHPNIIHLEGVVTKCKPVMIITEYMENGSLDAFLRKNDGRFTVIQLVGMLRGIGSGMKYLSDMSYVHRDLAARNILVNSNLVCKVSDFGMSRVLEDDPEAAYTTRGGKIPIRWTAPEAIAYRKFTSASDVWSYGIVMWEVMSYGERPYWDMSNQDVIKAIEEGYRLPPPMDCPIALHQLMLDCWQKERSDRPKFGQIVNMLDKLIRNPNSLKRTGTESSRPNTALLDPSSPEFSAVVSVGDWLQAIKMDRYKDNFTAAGYTTLEAVVHVNQEDLARIGITAITHQNKILSSVQAMRTQMQQMHGRMVPV
modifications: left off: a dimerising Fc or GST
B4: MAP3K5(ASK1) (protein)
chain: MSTEADEGITFSVPPFAPSGFCTIPEGGICRRGGAAAVGEGEEHQLPPPPPGSFWNVESAAAPGIGCPAATSSSSATRGRGSSVGGGSRRTTVAYVINEASQGQLVVAESEALQSLREACETVGATLETLHFGKLDFGETTVLDRFYNADIAVVEMSDAFRQPSLFYHLGVRESFSMANNIILYCDTNSDSLQSLKEIICQKNTMCTGNYTFVPYMITPHNKVYCCDSSFMKGLTELMQPNFELLLGPICLPLVDRFIQLLKVAQASSSQYFRESILNDIRKARNLYTGKELAAELARIRQRVDNIEVLTADIVINLLLSYRDIQDYDSIVKLVETLEKLPTFDLASHHHVKFHYAFALNRRNLPGDRAKALDIMIPMVQSEGQVASDMYCLVGRIYKDMFLDSNFTDTESRDHGASWFKKAFESEPTLQSGINYAVLLLAAGHQFESSFELRKVGVKLSSLLGKKGNLEKLQSYWEVGFFLGASVLANDHMRVIQASEKLFKLKTPAWYLKSIVETILIYKHFVKLTTEQPVAKQELVDFWMDFLVEATKTDVTVVRFPVLILEPTKIYQPSYLSINNEVEEKTISIWHVLPDDKKGIHEWNFSASSVRGVSISKFEERCCFLYVLHNSDDFQIYFCTELHCKKFFEMVNTITEEKGRSTEEGDCESDLLEYDYEYDENGDRVVLGKGTYGIVYAGRDLSNQVRIAIKEIPERDSRYSQPLHEEIALHKHLKHKNIVQYLGSFSENGFIKIFMEQVPGGSLSALLRSKWGPLKDNEQTIGFYTKQILEGLKYLHDNQIVHRDIKGDNVLINTYSGVLKISDFGTSKRLAGINPCTETFTGTLQYMAPEIIDKGPRGYGKAADIWSLGCTIIEMATGKPPFYELGEPQAAMFKVGMFKVHPEIPESMSAEAKAFILKCFEPDPDKRACANDLLVDEFLKVSSKKKKTQPKLSALSAGSNEYLRSISLPVPVLVEDTSSSSEYGSVSPDTELKVDPFSFKTRAKSCGERDVKGIRTLFLGIPDENFEDHSAPPSPEEKDSGFFMLRKDSERRATLHRILTEDQDKIVRNLMESLAQGAEEPKLKWEHITTLIASLREFVRSTDRKIIATTLSKLKLELDFDSHGISQVQVVLFGFQDAVNKVLRNHNIKPHWMFALDSIIRKAVQTAITILVPELRPHFSLASESDTADQEDLDVEDDHEEQPSNQTVRRPQAVIEDAVATSGVSTLSSTVSHDSQSAHRSLNVQLGRMKIETNRLLEELVRKEKELQALLHRAIEEKDQEIKHLKLKSQPIEIPELPVFHLNSSGTNTEDSELTDWLRVNGADEDTISRFLAEDYTLLDVLYYVTRDDLKCLRLRGGMLCTLWKAIIDFRNKQT
modifications: left off: a dimerising Fc or GST
B5: MAP3K9(MLK1) (protein)
chain: MEPSRALLGCLASAAAAAPPGEDGAGAGAEEEEEEEEEAAAAVGPGELGCDAPLPYWTAVFEYEAAGEDELTLRLGDVVEVLSKDSQVSGDEGWWTGQLNQRVGIFPSNYVTPRSAFSSRCQPGGEDPSCYPPIQLLEIDFAELTLEEIIGIGGFGKVYRAFWIGDEVAVKAARHDPDEDISQTIENVRQEAKLFAMLKHPNIIALRGVCLKEPNLCLVMEFARGGPLNRVLSGKRIPPDILVNWAVQIARGMNYLHDEAIVPIIHRDLKSSNILILQKVENGDLSNKILKITDFGLAREWHRTTKMSAAGTYAWMAPEVIRASMFSKGSDVWSYGVLLWELLTGEVPFRGIDGLAVAYGVAMNKLALPIPSTCPEPFAKLMEDCWNPDPHSRPSFTNILDQLTTIEESGFFEMPKDSFHCLQDNWKHEIQEMFDQLRAKEKELRTWEEELTRAALQQKNQEELLRRREQELAEREIDILERELNIIIHQLCQEKPRVKK
modifications: left off: a dimerising Fc or GST
B6: MAP4K4(HGK) (protein)
chain: MANDSPAKSLVDIDLSSLRDPAGIFELVEVVGNGTYGQVYKGRHVKTGQLAAIKVMDVTEDEEEEIKLEINMLKKYSHHRNIATYYGAFIKKSPPGHDDQLWLVMEFCGAGSITDLVKNTKGNTLKEDWIAYISREILRGLAHLHIHHVIHRDIKGQNVLLTENAEVKLVDFGVSAQLDRTVGRRNTFIGTPYWMAPEVIACDENPDATYDYRSDLWSCGITAIEMAEGAPPLCDMHPMRALFLIPRNPPPRLKSKKWSKKFFSFIEGCLVKNYMQRPSTEQLLKHPFIRDQPNERQVRIQLKDHIDRTRKKRGEKDETEYEYSGSEE
modifications: left off: a dimerising Fc or GST
B7: MAPK11(p38B) (protein)
chain: MSGPRAGFYRQELNKTVWEVPQRLQGLRPVGSGAYGSVCSAYDARLRQKVAVKKLSRPFQSLIHARRTYRELRLLKHLKHENVIGLLDVFTPATSIEDFSEVYLVTTLMGADLNNIVKCQALSDEHVQFLVYQLLRGLKYIHSAGIIHRDLKPSNVAVNEDCELRILDFGLARQADEEMTGYVATRWYRAPEIMLNWMHYNQTVDIWSVGCIMAELLQGKALFPGSDYIDQLKRIMEVVGTPSPEVLAKISSEHARTYIQSLPPMPQKDLSSIFRGANPLAIDLLGRMLVLDSDQRVSAAEALAHAYFSQYHDPEDEPEAEPYDESVEAKERTLEEWKELTYQEVLSFKPPEPPKPPGSLEIEQ
modifications: left off: small tags and cut ends
B8: MAPK12(p38gamma) (protein)
chain: MSSPPPARSGFYRQEVTKTAWEVRAVYRDLQPVGSGAYGAVCSAVDGRTGAKVAIKKLYRPFQSELFAKRAYRELRLLKHMRHENVIGLLDVFTPDETLDDFTDFYLVMPFMGTDLGKLMKHEKLGEDRIQFLVYQMLKGLRYIHAAGIIHRDLKPGNLAVNEDCELKILDFGLARQADSEMTGYVVTRWYRAPEVILNWMRYTQTVDIWSVGCIMAEMITGKTLFKGSDHLDQLKEIMKVTGTPPAEFVQRLQSDEAKNYMKGLPELEKKDFASILTNASPLAVNLLEKMLVLDAEQRVTAGEALAHPYFESLHDTEDEPQVQKYDDSFDDVDRTLDEWKRVTYKEVLSFKPPRQLGARVSKETPL
modifications: left off: small tags and cut ends

System: kinases of Table 6 on Myelin Basic Protein (MBP)
Assay: Kinase assay using MBP substrate, ProQ Diamond stain (Table 6)
Format: biochemical
Settings: kinase printed on MBP-coated slide; 20 uM ATP, 30° C.; ProQ Diamond Microarray Stain; graded Strong/Weak/Negative
Experimental: In this illustrative example, four-well slides were designed with a hydrophobic mask surrounding 4-wells of aldehyde- or epoxy-coated glass (smooth or ES grade; Erie Scientific (Portsmouth, N.H.)). […] Bovine, dephosphorylated, Myelin Basic Protein (MBP) was purchased from Upstate Biotechnology (#13-110). MBP was diluted to 1 mg/ml in PBS, applied to the slide surface, covered with a coverslip, and left overnight at 4° C. to coat the slide with the MBP. Slides were washed 3 times with water and spun dry before printing.
Kinases were purchased from Panvera (Invitrogen, Carlsbad, Calif.), diluted in printing buffer (50 mM Tris pH 7.5, 25% glyercol, 0.05% TritonX-100, 2 mM DTT) and deposited using a GeneMachine OmniGrid100. Slides were stored at −20° C.
Reactions were performed following removal of the slide from the freezer. Reaction buffer (20 mM HEPES pH 7.5, 4 mM MgCl2, 2 mM DTT, 20 uM ATP, 5% DMSO) was added with or without inhibitor, a coverslip applied, and the slide placed at 30° C. for the appropriate reaction time. The slide was washed with water to stop the reaction (3 times) and spun dry. ProQ Diamond Microarray Stain (Invitrogen #P33706) was applied, covered with a coverslip, and the slide was incubated in the dark at room temperature for 30 minutes. The slide was destained and washed three times with water, and spun dry.

Row | Molecule | MBP Kinase Activity
1 | B1 | Negative
2 | B2 | Weak
3 | B3 | Strong
4 | B4 | Weak
5 | B5 | Strong
6 | B6 | Strong
7 | B7 | Strong
8 | B8 | Strong
